Source: paper PMC3416805
Where “and” joins values, the source holds several entries; their conditions need not be identical. Equal values may be shown once.

Target: endogenous ASR1 from tomato fruit nuclei (tomato (endogenous in tomato fruit)) (UniProt Q08655)
Assay: cross-linking; formaldehyde crosslinking of ground tomato fruit pericarp, nuclei purified, nuclear proteins passed over a Ni2+ column, SDS-PAGE and immunoblot with anti-ASR1 antiserum

percent of nuclear ASR1 in a monomeric form: > 90% | stoichiometry N: 2 and 3
Substance: endogenous ASR1 from tomato fruit nuclei (from UniProt Q08655 1-115) (natural protein)
